Source: US20090118185A1 (UNIVERSITY OF ROCHESTER, published 2009)
Where “and” joins values, the source holds several entries; their conditions need not be identical. Identical values can stand only once.

How the values were obtained:
[1] = biological target: T1, WT factor VIIIa (B-domainless recombinant human factor VIII activated by thrombin)
T1 chain 1: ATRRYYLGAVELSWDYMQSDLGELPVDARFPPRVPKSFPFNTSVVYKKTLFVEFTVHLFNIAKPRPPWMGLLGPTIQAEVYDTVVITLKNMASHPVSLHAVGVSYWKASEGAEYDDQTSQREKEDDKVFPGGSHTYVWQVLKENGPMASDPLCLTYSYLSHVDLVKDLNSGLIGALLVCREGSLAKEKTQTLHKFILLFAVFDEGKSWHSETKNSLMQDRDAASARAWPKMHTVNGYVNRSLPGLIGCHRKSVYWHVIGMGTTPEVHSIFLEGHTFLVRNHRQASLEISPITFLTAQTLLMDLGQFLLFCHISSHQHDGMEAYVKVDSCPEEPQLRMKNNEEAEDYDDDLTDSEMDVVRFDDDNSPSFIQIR
T1 chain 2: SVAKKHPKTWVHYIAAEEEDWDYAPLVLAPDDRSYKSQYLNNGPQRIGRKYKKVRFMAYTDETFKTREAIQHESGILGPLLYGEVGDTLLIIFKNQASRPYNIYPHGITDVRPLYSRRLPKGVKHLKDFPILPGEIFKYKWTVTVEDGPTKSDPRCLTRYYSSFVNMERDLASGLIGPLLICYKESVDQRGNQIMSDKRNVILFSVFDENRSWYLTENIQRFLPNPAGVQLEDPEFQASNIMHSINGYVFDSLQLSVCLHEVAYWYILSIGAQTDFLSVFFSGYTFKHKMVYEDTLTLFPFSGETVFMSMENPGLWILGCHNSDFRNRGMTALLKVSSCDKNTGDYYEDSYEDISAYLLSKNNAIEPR
T1 chain 3: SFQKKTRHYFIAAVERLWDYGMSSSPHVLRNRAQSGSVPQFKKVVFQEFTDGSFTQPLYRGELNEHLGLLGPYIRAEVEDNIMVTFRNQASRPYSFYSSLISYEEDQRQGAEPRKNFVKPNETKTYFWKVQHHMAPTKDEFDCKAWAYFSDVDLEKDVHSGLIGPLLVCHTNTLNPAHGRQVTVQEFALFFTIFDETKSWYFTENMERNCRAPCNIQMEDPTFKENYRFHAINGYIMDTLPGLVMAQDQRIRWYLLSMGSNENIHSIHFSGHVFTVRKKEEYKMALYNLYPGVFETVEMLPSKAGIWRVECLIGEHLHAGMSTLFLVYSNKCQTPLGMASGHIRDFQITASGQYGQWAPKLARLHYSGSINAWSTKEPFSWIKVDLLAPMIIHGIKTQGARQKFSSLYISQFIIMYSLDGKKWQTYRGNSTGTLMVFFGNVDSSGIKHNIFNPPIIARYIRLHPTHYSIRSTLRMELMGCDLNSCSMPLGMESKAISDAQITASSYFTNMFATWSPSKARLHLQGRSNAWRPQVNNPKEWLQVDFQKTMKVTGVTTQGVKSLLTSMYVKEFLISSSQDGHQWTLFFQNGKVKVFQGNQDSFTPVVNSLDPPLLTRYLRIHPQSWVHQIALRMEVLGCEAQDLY

[2] = biological target: T2, 336(P1′-P3′)562 factor VIIIa mutant
T2 chain 1: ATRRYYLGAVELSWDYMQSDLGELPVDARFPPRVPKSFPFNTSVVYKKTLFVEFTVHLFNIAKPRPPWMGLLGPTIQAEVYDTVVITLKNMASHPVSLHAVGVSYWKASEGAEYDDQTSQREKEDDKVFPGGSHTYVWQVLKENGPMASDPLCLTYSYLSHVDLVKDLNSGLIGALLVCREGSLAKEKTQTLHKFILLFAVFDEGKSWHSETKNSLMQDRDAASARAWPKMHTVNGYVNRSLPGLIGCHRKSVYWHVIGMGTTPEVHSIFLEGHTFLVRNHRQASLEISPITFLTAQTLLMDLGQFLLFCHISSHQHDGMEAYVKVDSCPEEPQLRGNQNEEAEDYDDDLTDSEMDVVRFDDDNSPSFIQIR
T2 chain 2: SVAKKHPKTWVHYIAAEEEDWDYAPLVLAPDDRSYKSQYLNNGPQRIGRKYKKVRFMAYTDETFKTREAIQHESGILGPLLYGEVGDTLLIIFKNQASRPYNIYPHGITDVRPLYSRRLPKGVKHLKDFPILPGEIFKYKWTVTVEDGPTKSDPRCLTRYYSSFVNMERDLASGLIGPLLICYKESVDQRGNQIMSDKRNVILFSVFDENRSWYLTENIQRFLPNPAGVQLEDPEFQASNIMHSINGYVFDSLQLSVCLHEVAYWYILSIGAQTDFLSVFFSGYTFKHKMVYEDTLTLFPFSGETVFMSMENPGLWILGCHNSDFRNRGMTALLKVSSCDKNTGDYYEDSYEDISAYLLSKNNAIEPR
T2 chain 3: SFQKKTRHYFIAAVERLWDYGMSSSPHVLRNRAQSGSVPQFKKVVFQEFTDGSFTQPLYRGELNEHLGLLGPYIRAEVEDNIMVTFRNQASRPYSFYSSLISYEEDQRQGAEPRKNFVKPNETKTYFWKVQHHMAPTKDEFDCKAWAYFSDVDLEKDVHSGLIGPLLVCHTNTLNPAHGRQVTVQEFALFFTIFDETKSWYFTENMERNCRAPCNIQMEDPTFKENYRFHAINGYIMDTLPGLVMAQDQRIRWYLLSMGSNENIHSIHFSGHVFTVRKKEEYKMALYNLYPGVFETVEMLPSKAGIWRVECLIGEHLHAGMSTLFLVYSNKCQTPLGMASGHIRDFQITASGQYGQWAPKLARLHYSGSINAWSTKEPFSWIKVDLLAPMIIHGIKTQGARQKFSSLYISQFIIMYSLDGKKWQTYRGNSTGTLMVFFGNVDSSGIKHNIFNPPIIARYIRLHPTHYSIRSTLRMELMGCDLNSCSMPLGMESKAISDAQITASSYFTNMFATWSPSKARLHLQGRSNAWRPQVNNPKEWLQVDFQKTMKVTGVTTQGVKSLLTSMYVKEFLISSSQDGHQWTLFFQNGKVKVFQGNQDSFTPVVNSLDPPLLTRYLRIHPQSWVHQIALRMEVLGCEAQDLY

[3] = biological target: T3, 336(P4-P2)562 factor VIIIa mutant
T3 chain 1: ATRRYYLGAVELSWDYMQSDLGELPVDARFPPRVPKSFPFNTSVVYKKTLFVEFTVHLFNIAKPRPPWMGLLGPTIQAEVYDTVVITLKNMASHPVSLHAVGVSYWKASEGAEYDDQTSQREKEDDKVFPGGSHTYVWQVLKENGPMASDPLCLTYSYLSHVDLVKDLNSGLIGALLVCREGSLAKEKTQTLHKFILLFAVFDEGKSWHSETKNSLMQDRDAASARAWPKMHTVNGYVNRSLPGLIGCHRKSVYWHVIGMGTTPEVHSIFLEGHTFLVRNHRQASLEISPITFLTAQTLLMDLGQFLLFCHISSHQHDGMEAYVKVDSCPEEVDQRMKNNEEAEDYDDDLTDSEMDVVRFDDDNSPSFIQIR
T3 chain 2: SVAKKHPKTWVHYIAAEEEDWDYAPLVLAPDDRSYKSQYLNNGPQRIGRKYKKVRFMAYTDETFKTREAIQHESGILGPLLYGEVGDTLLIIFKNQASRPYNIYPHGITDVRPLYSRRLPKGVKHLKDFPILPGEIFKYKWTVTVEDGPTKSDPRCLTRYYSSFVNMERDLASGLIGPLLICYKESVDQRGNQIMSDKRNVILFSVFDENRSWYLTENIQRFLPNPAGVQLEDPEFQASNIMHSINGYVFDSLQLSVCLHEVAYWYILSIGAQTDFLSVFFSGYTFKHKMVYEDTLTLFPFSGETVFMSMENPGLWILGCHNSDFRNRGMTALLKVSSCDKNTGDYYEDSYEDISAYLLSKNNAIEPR
T3 chain 3: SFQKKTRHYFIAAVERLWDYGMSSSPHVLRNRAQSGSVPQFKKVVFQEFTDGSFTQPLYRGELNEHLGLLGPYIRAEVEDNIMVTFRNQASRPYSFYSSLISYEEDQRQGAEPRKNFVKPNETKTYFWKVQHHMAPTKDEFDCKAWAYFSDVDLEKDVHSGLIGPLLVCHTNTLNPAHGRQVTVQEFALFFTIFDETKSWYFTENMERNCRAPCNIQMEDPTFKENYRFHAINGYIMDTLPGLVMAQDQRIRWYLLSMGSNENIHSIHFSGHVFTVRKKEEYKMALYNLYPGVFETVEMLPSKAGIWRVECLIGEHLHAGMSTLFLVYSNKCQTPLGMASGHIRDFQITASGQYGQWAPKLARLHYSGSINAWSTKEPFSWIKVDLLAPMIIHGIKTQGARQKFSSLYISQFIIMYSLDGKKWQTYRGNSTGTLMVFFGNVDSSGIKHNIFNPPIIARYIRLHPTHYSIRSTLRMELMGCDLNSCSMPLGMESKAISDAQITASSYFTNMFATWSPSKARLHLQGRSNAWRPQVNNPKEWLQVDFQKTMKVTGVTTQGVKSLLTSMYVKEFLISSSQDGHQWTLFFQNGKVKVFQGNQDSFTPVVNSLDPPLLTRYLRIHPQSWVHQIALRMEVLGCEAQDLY

B1: human activated protein C (protein)
chain 1: ANSFLEELRHSSLERECIEEICDFEEAKEIFQNVDDTLAFWSKHVDGDQCLVLPLEHPCASLCCGHGTCIDGIGSFSCDCRSGWEGRFCQREVSFLNCSLDNGGCTHYCLEEVGWRRCSCAPGYKLGDDLLQCHPAVKFPCGRPWKRMEKKRSHL
chain 2: LIDGKMTRRGDSPWQVVLLDSKKKLACGAVLIHPSWVLTAAHCMDESKKLLVRLGEYDLRRWEKWELDLDIKEVFVHPNYSKSTTDNDIALLHLAQPATLSQTIVPICLPDSGLAERELNQAGQETLVTGWGYHSSREKEAKRNRTFVLNFIKIPVVPHNECSEVMSNMVSENMLCAGILGDRQDACEGDSGGPMVASFHGTWFLVGLVSWGEGCGLLHNYGVYTKVSRYLDWIHGHIRDKEAPQKSWAP
- A1 Cleavage (nM A1/min/nM APC) (nM A1/min/nM APC) [1]: 8.5 and 9.5
- A2 Cleavage (nM A2/min/nM APC) (nM A2/min/nM APC) [1]: 0.5 and 0.2
- A1 Cleavage (nM A1/min/nM APC) (nM A1/min/nM APC) [2]: 1.1
- A2 Cleavage (nM A2/min/nM APC) (nM A2/min/nM APC) [2]: 0.3
- fold reduction of cleavage rate at the A1 site compared with WT [2]: reduced ˜16 and ˜9-fold, respectively, as compared with the WT protein
- A1 Cleavage (nM A1/min/nM APC) (nM A1/min/nM APC) [3]: 0.6
- A2 Cleavage (nM A2/min/nM APC) (nM A2/min/nM APC) [3]: 0.2
- fold reduction of cleavage rate at the A1 site compared with WT [3]: reduced ˜16 and ˜9-fold, respectively, as compared with the WT protein
